Biological target: T1, mature cathepsin K (murine) (murine, UniProt P55097 115-329)
T1 construct: cathepsin K, murine; catalytic Cys25; 22 kDa as printed; No tag is named; also called CtsK; mature CtsK; source: 293-Freestyle cells, transient expression of pro-CtsK
T1 sequence (looked up): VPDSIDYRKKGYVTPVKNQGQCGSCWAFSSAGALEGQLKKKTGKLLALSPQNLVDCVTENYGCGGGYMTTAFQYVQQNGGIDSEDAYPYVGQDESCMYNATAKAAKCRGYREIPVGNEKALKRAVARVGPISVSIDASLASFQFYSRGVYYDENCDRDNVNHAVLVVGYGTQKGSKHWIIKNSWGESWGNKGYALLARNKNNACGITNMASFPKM
Assay: SEC; CtsK and Cst3 without HS, Superdex200 column
Settings: both partners purified

B1: Cystatin C (natural protein, UniProt P21460 21-140, looked up)
chain: ATPKQGPRMLGAPEEADANEEGVRRALDFAVSEYNKGSNDAYHSRAIQVVRARKQLVAGVNYFLDVEMGRTTCTKSQTNLTDCPFHDQPHLMRKALCSFQIYSVPWKGTHSLTKFSCKNA
notes: Cystatin C (Cst3), 13 kDa as printed; The printed residues (Pro7, Met9, Leu10, Gly11, Ala12, Leu56-Gly59, Pro105-Lys107) fit mature mouse cystatin C as I recall it, not the human protein; human cystatin C (PDB 3GAX) was only the search model for molecular replacement; also called Cst3; Cts3
stoichiometry N: 1

From doi:10.1101/2024.01.05.574350, “Heparan sulfate selectively inhibits the collagenase activity of cathepsin K” (bioRxiv, 2024)
